assay: soluble on expression in E. coli; label from the status in PepcDB or PDB records

Soluble on expression in E. coli, not soluble:
MGSDKIHHHHHHMDQGDDGDGQTANADYSIRIAAGIGAFTCDEWNGFAGTTRSDAENGYNPLVSFAFLSALEDSGCAVRRTGWQGHHVRLETAQGRLLGAVPCYLKSHSQGEYVFDHGWSDAFERAGGRYYPKLQCAVPFTPVTGPRLLVNRGEDPDAVKAGLAAGLKMVTDKLGVSSAHVTFAQESDVATLEAAGFLHRTDQQFHFFNEGFSTYDDFLATLASRKRKAMKKERREALADGITIDWLTGKDLTEKAWDDFFAFYMDTGSRKWGRPYLNRQFFSLIGERMADDILLVMARRNGRYVAGAINFIGSDALYGRNWGCIEDHPFLHFEVCYHQAIDFAIERKLKVVEAGAQGEHKLARGYRPVTMHSAHYISHPGLRNAVADYLQRERREVERMGEYLEEHTPFRKDLEE, MGSDKIHHHHHHMDRIIEKLDHGWWVVSHEQKLWLPKGELPYGERANFDLVGQRALQIGEWQGEPVWLVQQQRRHDMGSVRQVIDLDVGLFQLAGRGVQLAEFYRSHKYCGYCGHEMYPSKTEWAMLCSHCRERYYPQIAPCIIVAIRRDDSILLAQHTRHRNGVHTVLAGFVEVGETLEQAVAREVMEESGIKVKNLRYVTSQPWPFPQSLMTAFMAEYDSGDIVIDPKELLEANWYRYDDLPLLPPPGTVARRLIEDTVAMCRAEYE, MGSDKIHHHHHHMDSMQTTETFQVLKIGADAYIKRRNQRLLSNHRKDLRKFTRAEAFTYLDIDAKTLDKYVATADFDPRRHEDSQWLINIEEMYQLRDLLPENLRKASKFKRSDNQKMQVIVIQNQKGGVGKTVSAATIASGLATEFHQEYRVGLIDMDGQATLSMYYAPEADLEGCLSVGDLMMNNFDLDEGETLEQVVSNAFLPTTIPNLRILPASQSDRAIEGWFHEQVFGQKLTSPYSLLNTIINAVQDEFDIIIIDTPPSLGYATYNAYFAATSVVFPLSITENDIDATCSYFSYIPQVWALLANANHRGYDFMKILITNHRDSATTTDLMNTLYDHFAPYMYSNEFKHSEAIRQSSSLLSTVFDMSKSEYPKSKATFQSAQQNCYEVTSQVLRDIVNVWREQEQA, MGSDKIHHHHHHMDYTRYVVQPGDSIYKIANAYKIEMSDIINLNHLKHPDRIYPGQILLLPTYEFKDTLPGEIPEPNFTYAMWLFDVYAGKDSELSAVTTYLYQAVVLDRPEFDELLRPIAYDELRHLEQLAWCIRFLGVDPRYGSFSKGRWFDWRSRYLNYSTELCVILDHNMKDEAAAVKHYTDLAQKIPIPEIQTILLQLAADEERHYQCLAQAKTRFCGCGSSQTQHIKESSNGEEL, MGSDKIHHHHHHMEENIWWRGKDYIEEDEDIKKWNSAKFKWIPKEINKISLQPFSLNFIVGPRQVGKTTLIKLLIKKLLESNHNPLSIFYCSCDLVSDYEELLKRTRDYLKIRKQEGIKSSFIFLDEVTFVKEWYRAVKHLIDTGELTSDVVTVSGSSSLTILKQKESFPGRRGNGTDVILYPLSFSGYINVINPKIEVRPGWYSEIEELFESYLKVGGLPPSINGLSPLKTYTEWIIYEINRVGRDEMLAKQILSAVLSTTPSKVSYNSIAKEIGVNHRTVAEYIKLFNDMFLTLTLHFIDVNTGYYNYRKQIKIHFVDPLFYDVMSTWTGVKRPDDPIIVEGIVASHLSRIYSIGYTEVGKEEIDVVTLPEVIGYEVKYRERTKQVKVIAGKMKKVITLSKHGENDTFPVHLFLAELNI, MGSDKIHHHHHHMEFDQAKKIVVATIIDQQGLSDRLVGCKAIITSTGRLSYSIPLAWVRERLEVLIRESLYRGSFEVISLANPNDTRQKATLMIDPYLPPQELIILGGGHIAQPLAKIGKLLGYQVAVLDDRPEFVSKDRFPEADKTICCSFDTVENSFDLGPQSNVVIVTRGHQHDLLCLRQMLKYPLAYLGMIGSRRKVAIIRERLLEEGLAVKKLNSVYMPIGLDIGAQTPAEIAVSITAELIKVRRGGKAASIKNIDKKNNDNEAGVFNLGELPSTIDQEILQLTLQAAINHVPAALATVVSTKGSTPRKAGAHMLVWADGRSLGTVGGGQGEAKVRAEAFKIINTSQPILYRISMDAANAAMEGMICGGSMEVFIEPVNGFAQVSGGGGIL, MGSDKIHHHHHHMEFWESSFIEKQTMWGFEPTESAILAKDFFLEKNVKDILVPGIGYGRNAKVFIENSINVTGIEISKTAIDLARENGLEDVSIYHGSVNEMPFDNKLYDGIFSHALLHLLNDQEREGFIENCYNQLKPGAYMVFTTVSKKAPMYGKGKQLDKDYYEIMEGVKMFFYDSESIKKDFNQYGLVQVSEIDEPNKNMANKPSINFLTIKCKKEL, MGSDKIHHHHHHMEHIQSSIEKILNRPDVAESVRAIHQRVLSHPGVIMFLRTHPEIDQRMIERGMLKLNEYAEQMNGNQIIEKKAVIEGYQPVLHLEKGQIMVAYEKTQALRDRENERALEKKFKSLFLPDEVRDANFSDFDLTTTDRKLALRAASQFLNTVRSKQQVKGLYLHGSFGVGKTYLLAAIGNALKKERVATILVHAPGFVSEAKRRIRSDSFDTFLESFQTVPVLLIDDIGAESISPWVRDELFGIILQYRMMHRLPTLFSSNLSYDELELHFGITNDQGDKLKAMRLMERIRTTTNPVEFLGENRRRY, MGSDKIHHHHHHMEISMRFTDINQERERILSCPVPGYFPRKDSFLELERLIGLREVKRTLAEVAAFTLIQNRRSELRLKSDPTALHMVFKGNPGTGKTTVARILGRVFNEIGILSKGHLLEVERADLVGEYIGHTAQKTREILKRAMGGIVFIDEAYSLAQGGERDFGKEAISTLVKAMEDYRDNLVVILAGYSQEIDRFLKSNPGLRSRFPIHIDFCDYNAEELFQIALQIYQEREYELTSRCRWKLKQQLNEFVKNRHSHSGNARYVRNLAEKSIRLQALRIVDKDAPVRRDLVTIEEADLPDPRSIQA, MGSDKIHHHHHHMEKIIEINDSIIQISDLNDRIYIMKLGKDVGELIKHVDSVCNEKKLSKVFAKVSGNKKELFEKNGYICEGKLENYYSNDDAYFMSKFFEESRKISKFSKEAEDVLNYVKTVGVNPHTKIDEKFHLKIANETDAEKLSKHYSKVFKTYPFPIDDPNYILKTMQTNVKYFIIEDNGKIVAASSCEMDIKNKCVEMTDFAVLEEYQKLGLSKYLLYIMEKIMKDNGYRVFYTIARSISYGMNITFKKMGYMYSGTAVNNTNICGNFEDMNFWYKLSE, MGSDKIHHHHHHMEKILLVDDEQFVLDGLKRQLRRKYAIHTADGGEKGLQLIQSDGPFAVVVSDMRMPEMNGIEFLTQVRRVAPDSIRIMLTGYADQKTAINAINEGAIFRFLTKPCSLENLTVALDAALDQYRLITAEKELLEKTLKGSIKVLVDILSLSAPAAFSQATRLRKYAAQIVARLEFPDSWQYEIAALLSSIGFVNIPPETITKHLIGEKLTGREQEMIDAVPETAGMLLANIPRLSAVALMINRQNTPCSEPTAFKNGDFHEAVRIGANLLKVLTDFDILLIRNYEPEEAIRIMSERIGLYDRTLLNMLAILDLPRRDQGVRNIRIDDLREGMIIDADIRNTHGILVVPKGYEVNESTCQRLKNFLIRQTGAETVRVLMPVYAEEESQ, MGSDKIHHHHHHMEKKVICQDIFWSCDGTSFVSVHNDFGIRQYLVPEESNTDKLNRNLLLPFTRFFRNQSIVSCAIDPFYTLYNENSDRLAGDRIVVGGKNFPLQLYSLMDGQCILSYDTMNKINGEYETVYSVKIDVESRVYTGSCRNKVAIYDKSRRDAVWMNQSTKKASKGRQSIISCFEEQPMGGQALSRGSLLCGSYANEMFQVDCRHQRLERLNYTRTVAGGIVQILTSDNGRYVYVVRRNSDAISIYDRRNLQHELNVLRLPFRIHHNSAKLKAYIDTAYGLSMGTPQGTILNWGRDLVEFGGVPSHNSVEDPLITSIPPESEWRTNLDSTIPATVVKNCPGDPELFALSHGGTISLCRFGG, MGSDKIHHHHHHMEKSKYKRDWSKYDENVITRYKLMFPFYVFEHWWDLLAEENRNARTKYKAPKEFNEFLAFLHIFLPYRAIEGVLRALEQLKIIPTSLDYSTIWERVRNMNITFPETSDELEVIADATGISTNTGGQYIVAKWGKTRDSKFLKIEIVMDNNEFNVINAEVTSNEVESAVKTVKDLQDKGKKVKKFYGDKAYDANEVYKTGVEVVVPPKKNASTKRHLARRKAVREFRKLGYDRWKEEKGYGVRWRVESLFSAVKRTFGESVRQVLLGK, MGSDKIHHHHHHMEKTVQLEHMNTRVFVEGAYDTALIPLGSCESHGDHLPFAMDALTAHKLALGVAERMEKVFVLPPTFFGFSQHYWHKPMSISLSQDTNIRVIADILDSLAHWKIRNVLIINGHDGNISAIDVAARAARLRHPDMKIGSLDAWWVTAGNLLPKDTFEVWNGLGHGGEGETSIGLACFPELVDMAHARGMIPEVDENVKELWDFSELTDYGATGAPEKATREKGQAMYDVLVDYLVAYLTKRRDTNWAYNPK, MGSDKIHHHHHHMELFRLHYFLELCKVKQFTKAAENLAISQAALSKQIKILEATLGAELFNRQGQTTTLTPAGLILEKYCWRITNELVSIEEELKEINHSSNHIYVATYLCDLEYKLNDLLMTTLTDRSSNLQVHTIITENILQSLETMDADFGISFADLPLPEHIGKIDLFTANYQFILRNDHPALAKATTEEILKELTMYPFVRLNTEFSEQNKLTNWLDTTFSNFSPEKVIQVDTLSLITHLVSHSDSFAIVPEYTNIQLLDNSIHTLTYQELPKRNMAVYYLKERYMSRQLQQLLAECQKQFQ, MGSDKIHHHHHHMELNEFLDKAYAVLRRLDAVLPPEPGHTDWNALAFRWQSAGKKGFLEHLPDPHTFPLARLAGVGRQTELLVRNTEQFIAGRPANNVLMSGARGTGKSSLVKALLHEYADKGLRLIEVDKSDLIGLPYLLTLLKERPEKFIVFCDDLSFESGDETYKALKTALDGGLSQRCANVLVYATSNRRHLMPEYFDENAGTTGMRGEIHQKEAVEEKISLSDRFGLWLSFYPFDQNDYLAAVQNWLEDFGVPYDETAQMAALQWAQTRGSRSGRSAWQFACDWAGRLPKQRAL, MGSDKIHHHHHHMELQLMQWQVGDLPFFYRCQPQPSNAPYGLPDSLPFCLEFDSALGLIRQSPNTQVEAALERCYQHGSTISGMMDSGGIGQQYARDFLDFIAHHETDLTGKRVLEIGCGTGYLLSLLKQKGADVLGIEPGAQGQGGQQRHGVPIIDGFFPHPKAEGKFDLIVAYAVLEHIGEPQGFLEKIADSLAPDGVAYIAVPDCAPYIENGDISCLLHEHWSYFDASSLQRLLEVSGFAAAVQPAGFGGSIYARAVRVSHKTKPVNDEIDLAGNGFERFRSLALGAGQRLERFLAGPGQAGIYVPGRMINLLASLDSVDLAQVRLFDDNEALTGLYFPGMPNPIEDFSGLVERPPARLLIATKSFHFQIADRIEHASVEVPLLAWSDLFLVAAPK, MGSDKIHHHHHHMELRDLQIFKCVAHHKSITGAAKELNYVQSNVTARIKQLENELKTPLFNRHKKGVSLSPEGRKMIEYVNKILKDVEELEQVFLDTEIPSGILKIGTVETVRILPTIIASYYKKYPNVDLSLQAGLTEELIKKVMNHELDGAFISGPLKHSILEQYDVYTEKLTLVTSNKTFNIEDFSTTPILVFNQGCGYRSRLEQWLKDEGVLPNRMMEFNILETILNSVALGLGITVVPESAVMHLAVQGKVYCHPLPEKDSCISTIFIRHKDAYLTNSMRSLLKTIVEHKNMSMA
